Results: paper PMC6515530, “Characterization and Dye Decolorization Potential of Two Laccases from the Marine-Derived Fungus Pestalotiopsis sp” (International Journal of Molecular Sciences, 2019)

How the values were obtained:
Experiment in all cases: purified protein
[1] = system: T1, COc1cc(C=NN=Cc2cc(OC)c(O)c(OC)c2)cc(OC)c1O; type: biochemical, Pestalotiopsis sp. KF079; settings: pH 5, 30 °C
T1 construct: secreted by Aspergillus niger D15#26, purified

[2] = system: CCn1c(=NN=c2sc3cc(S(=O)(=O)O)ccc3n2CC)sc2cc(S(=O)(=O)O)ccc21; settings: pH 4, 30 °C
[3] = system: COc1cc(-c2ccc(N)c(OC)c2)ccc1N; settings: pH 5, 30 °C

| Substance | Km [1] [µM] | kcat [1] [s⁻¹] | kcat/Km [1] [M⁻¹ s⁻¹] | Km [2] [µM] | kcat [2] [s⁻¹] | kcat/Km [2] [M⁻¹ s⁻¹] | Km [3] [µM] | kcat [3] [s⁻¹] | kcat/Km [3] [M⁻¹ s⁻¹] |
| --- | --- | --- | --- | --- | --- | --- | --- | --- | --- |
| PsLac2 (Pestalotiopsis sp.) | 101 | 0.573 | 5670 | 100 | 0.431 | 4330 | 144 | 0.748 | 5190 |
| PsLac1 (Pestalotiopsis sp.) | 4 | 0.365 | 82900 | 24 | 0.696 | 29200 | 647 | 0.057 | 89 |
